The record followed here is paper PMC6367419 (Nature Communications, 2019).

Sequences and labels used below:
B2: EscN^29–446 (EPEC type III secretion system ATPase EscN, residues 29–446) (enzyme)
chain: NSSTRYEGKIINIGGTIIKARLPKARIGAFYKIEPSQRLAEVIAIDEDEVFLLPFEHVSGMYCGQWLSYQGDEFKIRVGDALLGRLIDGIGRPMESNIVAPYLPFERSLYAEPPDPLLRQVIDQPFILGVRAIDGLLTCGIGQRIGIFAGSGVGKSTLLGMICNGASADIIVLALIGERGREVNEFLALLPQSTLSKCVLVVTTSDRPALERMKAAFTATTIAEYFRDQGKNVLLMMDSVTRYARAARDVGLASGEPDVRGGFPPSVFSSLPKLLERAGPAPKGSITAIYTVLLESDNVNDPIGDEVRSILDGHIVLTRELAEENHFPAIDIGLSASRVMHNVVTSEHLRAAAECKKLIATYKNVELLIRIGEYTMGQDPEADKAIKNRKLIQNFIQQSTKDISSYEKTIESLFKVVA
notes: also called T3SS ATPase; chains NA to NF; source: E. coli BL21 (λDE3), purified (HisTrap HP, thrombin cleavage, second HisTrap HP, desalting)

The target in series [1] is T1, EscN-EscO complex (EscN^29–446 with EscO^1–125) (Escherichia coli, UniProt B7UMA6). The settings on record: 3 mM ATP, 500 nM EscN, EscO 1:1 molar, 37 °C; pre-incubated with Mg2+ADP-AlF3, diluted out before assay.
Series [2] addresses EscN^29–446 (EPEC type III secretion system ATPase EscN, residues 29–446) (enteropathogenic Escherichia coli (EPEC) O127:H6 E2348/69) (UniProt B7UMA6).
Series [3] deals with T1, EscN-EscO complex (EscN^29–446 with EscO^1–125). The series can be described thus: cryo-EM structure, […] Å. On the set-up: EscN residues 29-446 plus full-length EscO (125 residues); N-terminal 6His tags cleaved with thrombin (tag residue 0 left on EscO); E. coli BL21(DE3); 6:1 complex; with Type III secretion system central stalk protein EscO. The series is classed as binding. The settings on record: bound as transition state analogue Mg2+ADP-AlF3; pH 7.5; catalytic inter-subunit sites (four of six).

Series [4] addresses B2. The series can be described thus: cryo-EM structure. The settings on record: both partners purified.
The series “cryo-EM structure” deals with the molecule itself. As to the kind of experiment: cryo-EM structure.

A word on the stoichiometry N: it is a count of units in the complex or per binding partner.

In the case of `Nc1ncnc2c1ncn2[C@@H]1O[C@H](COP(=O)(O)OP(=O)(O)OP(=O)(O)O)[C@@H](O)[C@H]1O` [ATP], the “EnzChek phosphate release ATPase assay” value in series [1] is “found to further enhance EscN oligomerization and ATPase activity”.
For the molecule “EscO^1–125 Lys110Glu/Lys114Glu (natural protein)”, the decrease in catalytic rate of EscN ATPase (EnzChek) with the EscO mutant against wild-type EscO in series [2] came to 50%.
Take `Nc1ncnc2c1ncn2[C@@H]1O[C@H](COP(=O)(O)OP(=O)(O)O)[C@@H](O)[C@H]1O` [ADP]: in series [3], the “cryo-EM structure, 3.29 Å” value was “Sample density of the class two catalytic site ligands ADP, AlF3 (grey and cyan)”.

B1: EscO^1–125 (full-length EPEC central stalk protein EscO) (natural protein)
chain: MLDRILSIRKSRANRLRESMAKINSQIKEVDGKLDDCEQAIKESIASKQAYCASLVNLDKVSLYKYQIKNNAFDEQKQRLYEKKSSLSKEKRSLLDSQKRTKEDLQHVNKSIEKLSFAIKEHYFD
notes: source: E. coli BL21 (λDE3), purified (HisTrap HP, thrombin cleavage, second HisTrap HP, desalting)
In the case of B1, the “stoichiometry N” value in series [4] turned out to be 1 EscO per EscN hexamer.
Regarding B2, the “stoichiometry N” value in “cryo-EM structure” was determined as 6.
